# Values quoted from earlier work, collected in article PMC4291147, “Molecular Basis of Histone Tail Recognition by Human TIP5 PHD Finger and Bromodomain of the Chromatin Remodeling Complex NoRC” (Structure(London, England:1993), 2015).
# Like-named read-outs stand apart in the source and are kept apart here.
# Key:
# [1] = molecular target: Histone H3 K14ac peptide (Homo sapiens) (UniProt P68431); assay: STD-NMR
# [2] = molecular target: Histone H3 K14ac peptide (Homo sapiens) (UniProt P68431)
# [3] = molecular target: Histone H3 K14ac peptide (Homo sapiens) (UniProt P68431); assay: ITC
# Sequence of PCAF BRD (Q92831 723-827): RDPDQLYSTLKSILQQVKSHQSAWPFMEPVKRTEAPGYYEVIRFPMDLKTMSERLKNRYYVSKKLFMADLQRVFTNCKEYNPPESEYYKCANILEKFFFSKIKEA
# Sequence of PCAF bromodomain (Q92831 720-830): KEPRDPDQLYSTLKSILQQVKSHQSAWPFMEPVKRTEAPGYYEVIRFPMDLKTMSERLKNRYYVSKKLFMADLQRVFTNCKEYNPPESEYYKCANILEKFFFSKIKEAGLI
# Sequence of SMARCA2 bromodomain (P51531 1375-1509): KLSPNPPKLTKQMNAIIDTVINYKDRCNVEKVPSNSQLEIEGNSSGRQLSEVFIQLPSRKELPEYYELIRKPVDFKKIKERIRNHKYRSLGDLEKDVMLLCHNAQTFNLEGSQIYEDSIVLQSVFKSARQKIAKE
# Sequence of SMARCA4 BRD (P51532 1453-1564): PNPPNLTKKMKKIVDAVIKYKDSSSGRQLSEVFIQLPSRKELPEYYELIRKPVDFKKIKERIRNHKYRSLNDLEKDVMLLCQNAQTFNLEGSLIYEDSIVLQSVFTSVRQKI
# Sequence of PB1 BRD2 (Q86U86 177-287): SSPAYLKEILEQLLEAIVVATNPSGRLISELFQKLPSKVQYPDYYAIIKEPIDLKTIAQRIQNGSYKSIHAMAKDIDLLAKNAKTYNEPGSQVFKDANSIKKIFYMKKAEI
# Sequence of PB1 BRD 2 (Q86U86 177-287): as above
# Sequence of SMARCA2 BRD (P51531 1378-1506): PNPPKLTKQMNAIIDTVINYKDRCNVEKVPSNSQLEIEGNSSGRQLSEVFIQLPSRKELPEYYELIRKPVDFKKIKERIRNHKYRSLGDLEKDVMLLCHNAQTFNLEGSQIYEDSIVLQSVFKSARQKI
# Sequence of SMARCA4 bromodomain (P51532 1450-1567): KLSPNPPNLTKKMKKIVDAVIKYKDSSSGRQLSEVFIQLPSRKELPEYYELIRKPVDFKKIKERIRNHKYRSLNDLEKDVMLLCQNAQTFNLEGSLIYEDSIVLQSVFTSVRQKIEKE
Substance,Kd [1],Kd [2],Kd [3]
SMARCA4 BRD (from UniProt P51532),1200 µM,,
PB1 BRD2 (from UniProt Q86U86),,500 µM,
PCAF bromodomain (from UniProt Q92831),128 µM,,188 µM
PB1 BRD 2 (from UniProt Q86U86),500 µM,,

# The remaining lines, values ahead:
Kd [1],Kd [2],Kd [3],Substance
1200 µM,,,SMARCA4 bromodomain (from UniProt P51532)
,,285 µM,SMARCA2 BRD (from UniProt P51531)
128 µM,,188 µM,PCAF BRD (from UniProt Q92831)
,,285 µM,SMARCA2 bromodomain (from UniProt P51531)
